Where a chain is given by its changes, count along the chain named. Numbers in names are those of the source.
B1: ReCR (Rhodococcus erythropolis; G336R/K233S/K67R/N94S/Q110S) (protein)
chain: MKAIQYTRIGAEPELTEIPKPEPGPGEVLLEVTAAGVCHSDDFIMSLPEEQYTYGLPLTLGHEGAGRVAAVGEGVEGLDIGTNVVVYGPWGCGSCWHCSQGLENYCSRASELGINPPGLGAPGALAEFMIVDSPRHLVPIGDLDPVKTVPLTDAGLTPYHAIKRSLPKLRGGSYAVVIGTGGLGHVAIQLLRHLSAATVIALDVSADKLELATKVGAHEVVLSDKDAAENVRSITGSQGAALVLDFVGYQPTIDTAMAVAGVGSDVTIVGIGDGQAHAKVGFFQSPYEASVTVPYWGARNELIELIDLAHAGIFDIAVETFSLDNGAEAYRRLAARTLSGRAVVVPGL
B2: ReCR (Rhodococcus erythropolis; G336R/K233S/K67R/N94S/Q110S/Y54F) (protein)
chain: B1 chain with Y54F

Columns and labels:
Assay in all cases: purified protein
[1] = substrate: CC(C)O; conditions: apparent, 0.4 mM NAD+, standard assay 50 mM CAPSO pH 10.0, 50 °C
[2] = substrate: CCCCCCC(C)=O; format: biochemical, Rhodococcus erythropolis; conditions: apparent, 0.4 mM NADH, standard assay 50 mM PIPES pH 6.0, 60 °C
[3] = substrate: CC(C)(C)OC(=O)N1CCCC(=O)C1; format: biochemical, Rhodococcus erythropolis; conditions: apparent, 0.4 mM NADH, standard assay 50 mM PIPES pH 6.0, 60 °C
[4] = substrate: CCCCCCC(C)O; format: biochemical, Rhodococcus erythropolis; conditions: apparent, 0.4 mM NAD+, standard assay 50 mM CAPSO pH 10.0, 50 °C
[5] = substrate: CC(C)=O; format: biochemical, Rhodococcus erythropolis; conditions: apparent, 0.4 mM NADH, standard assay 50 mM PIPES pH 6.0, 60 °C

Protein | Km [1] | Vmax [1] | kcat [1] | kcat/Km [1] | Km [2] | Vmax [2] | kcat [2] | kcat/Km [2] | Km [3] | Vmax [3] | kcat [3] | kcat/Km [3] | Km [4] | Vmax [4] | kcat [4] | kcat/Km [4] | Km [5] | Vmax [5] | kcat [5] | kcat/Km [5]
B1 | 1460 ± 60 µM | 23.5 µmol/min/mg | 14.2 s⁻¹ | 9740 M⁻¹ s⁻¹ | 3290 ± 50 µM | 236 µmol/min/mg | 142 ± 3.11 s⁻¹ | 43300 ± 950 M⁻¹ s⁻¹ | 1740 ± 80 µM | 104 µmol/min/mg | 62.6 ± 1.49 s⁻¹ | 36000 ± 860 M⁻¹ s⁻¹ | 4940 ± 450 µM | 107 µmol/min/mg | 64.4 ± 1.66 s⁻¹ | 13000 ± 340 M⁻¹ s⁻¹ | 46060 ± 2620 µM | 66.3 µmol/min/mg | 40.1 ± 1.98 s⁻¹ | 870 ± 40 M⁻¹ s⁻¹
B2 | 1030 ± 50 µM | 35.3 µmol/min/mg | 21.3 s⁻¹ | 20700 M⁻¹ s⁻¹ | 3110 ± 120 µM | 274 µmol/min/mg | 165 ± 4.58 s⁻¹ | 53200 ± 1470 M⁻¹ s⁻¹ | 1730 ± 50 µM | 141 µmol/min/mg | 85.1 ± 3.94 s⁻¹ | 49200 ± 2280 M⁻¹ s⁻¹ | 1370 ± 80 µM | 128 µmol/min/mg | 77.5 ± 1.88 s⁻¹ | 56600 ± 1370 M⁻¹ s⁻¹ | 37320 ± 560 µM | 90.5 µmol/min/mg | 54.7 ± 1.02 s⁻¹ | 1470 ± 30 M⁻¹ s⁻¹
